Test results reported in article PMC3350567 (Structure(London, England:1993), 2012).

B1: CCT2, subunit of yeast TRiC/CCT (yTRiC) (natural protein, Saccharomyces cerevisiae, UniProt P39076 1-527, looked up)
chain: MSVQIFGDQVTEERAENARLSAFVGAIAVGDLVKSTLGPKGMDKLLQSASSNTCMVTNDGATILKSIPLDNPAAKVLVNISKVQDDEVGDGTTSVTVLSAELLREAEKLIDQSKIHPQTIIEGYRLASAAALDALTKAAVDNSHDKTMFREDLIHIAKTTLSSKILSQDKDHFAELATNAILRLKGSTNLEHIQIIKILGGKLSDSFLDEGFILAKKFGNNQPKRIENAKILIANTTLDTDKVKIFGTKFKVDSTAKLAQLEKAEREKMKNKIAKISKFGINTFINRQLIYDYPEQLFTDLGINSIEHADFEGVERLALVTGGEVVSTFDEPSKCKLGECDVIEEIMLGEQPFLKFSGCKAGEACTIVLRGATDQTLDEAERSLHDALSVLSQTTKETRTVLGGGCAEMVMSKAVDTEAQNIDGKKSLAVEAFARALRQLPTILADNAGFDSSELVSKLRSSIYNGISTSGLDLNNGTIADMRQLGIVESYKLKRAVVSSASEAAEVLLRVDNIIRARPRTANRQHM
B2: CCT3, subunit of bovine TRiC/CCT (bTRiC) (natural protein, Bos taurus, UniProt Q3T0K2 1-545, looked up)
chain: MMGHRPVLVLSQNTKRESGRKVQSGNINAAKTIADIIRTCLGPKSMMKMLLDPMGGIVMTNDGNAILREIQVQHPAAKSMIEISRTQDEEVGDGTTSVIILAGEMLSVAEHFLEQQMHPTVVISAYRKALDDMISTLKKISIPVDTSNRDTMLNIINSSITTKVISRWSSLACNIALDAVKTVQFEENGRKEIDIKKYARVEKIPGGIIEDSCVLRGVMINKDVTHPRMRRYIKNPRIVLLDSSLEYKKGESQTDIEITREEDFTRILQMEEEYIQQLCEDIIQLKPDVVITEKGISDLAQHYLMRANITAIRRVRKTDNNRIARACGARIVSRPEELREEDVGTGAGLLEIKKIGDEYFTFITECKDPKACTILLRGASKEILSEVERNLQDAMQVCRNVLLDPQLVPGGGASEMAVAHALTEKSKAMTGVEQWPYRAVAQALEVIPRTLIQNCGASTIRLLTSLRAKHTQENCETWGVNGETGTLVDMKELGIWEPLAVKLQTYKTAVETAVLLLRIDDIVSGHKKKGDDQSRQGGAPDAGQE
B3: CCT2, subunit of bovine TRiC/CCT (bTRiC) (natural protein, Bos taurus, UniProt Q3ZBH0 1-535, looked up)
chain: MASLSLAPVNIFKAGADEERAETARLSSFIGAIAIGDLVKSTLGPKGMDKILLSSGRDASLMVTNDGATILKNIGVDNPAAKVLVDMSRVQDDEVGDGTTSVTVLAAELLREAESLIAKKIHPQTIIAGWREATKAARQALLNSAVDHGSDEVKFRQDLMNIAGTTLSSKLLTHHKDHFTKLAVEAVLRLKGSGNLEAIHVIKKLGGSLADSYLDEGFLLDKKIGVNQPKRIENAKILIANTGMDTDKIKIFGSRVRVDSTAKVAEIEHAEKEKMKEKVERILKHGINCFINRQLIYNYPEQLFGAAGVMAIEHADFVGVERLALVTGGEIASTFDHPELVKLGSCKLIEEVMIGEDKLIHFSGVALGEACTIVLRGATQQILDEAERSLHDALCVLAQTVKDSRTVYGGGCSEMLMAHAVTQLASRTPGKEAVAMESYAKALRMLPTIIADNAGYDSADLVAQLRAAHSEGKTTAGLDMKEGTIGDMSVLGITESFQVKRQVLLSAAEAAEVILRVDNIIKAAPRKRVPDHHPC
B4: CCT4, subunit of bovine TRiC/CCT (bTRiC) (natural protein, Bos taurus, UniProt Q2T9X2 1-542, looked up)
chain: MPENVAPRTGPPAGAAGAAGGRGKSAYQDRDKPAQIRFSNISAAKAVADAIRTSLGPKGMDKMIQDGKGDVTITNDGATILKQMQVLHPAARMLVELSKAQDIEAGDGTTSVVIIAGSLLDSCTKLLQKGIHPTIISESFQKALEKGIEILTDMSRPEELSDRETLLNSAATSLNSKVVSQYSSLLSPMSVDAVMKVIDPATATSVDLRDIKIVKKLGGTIDDCELVEGLVLTQKVANSGITRVEKAKIGLIQFCLSAPKTDMDNQIVVSDYVQMDRVLREERAYILNLVKQIKKTGCNVLLIQKSILRDALSDLALHFLNKMKIMVVKDIEREDIEFICKTIGTKPVAHVDQFTADMLGSAELAEEVSLNGSGKLIKITGCASPGKTVTIVVRGSNKLVIEEAERSIHDALCVIRCLVKKRALIAGGGAPEIELALRLTEYSRTLSGMESYCIRAFADAMEVIPSTLAENAGLNPISTVTELRNRHAQGEKTTGINVRKGGISNILEEQVVQPLLVSVSALTLATETVRSILKIDDVVNTR
B5: CCT7, subunit of bovine TRiC/CCT (bTRiC) (natural protein, Bos taurus, UniProt Q2NKZ1 1-543, looked up)
chain: MMPTPVILLKEGTDSSQGIPQLVSNISACQVIAEAVRTTLGPRGMDKLIVDGRGKATISNDGATILKLLDVVHPAAKTLVDIAKSQDAEVGDGTTSVTLLAAEFLKQVKPYVEEGLHPQIIIRAFRTATQLAVNKIKEIAVTVKKEDKVEQRKLLEKCAMTALSSKLISQQKAFFAKMVVDAVMMLDDLLQLKMIGIKKVQGGALEESQLVAGVAFKKTFSYAGFEMQPKKYHNPMIALLNVELELKAEKDNAEIRVHTVEDYQAIVDAEWNILYDKLEKIHHSGAKVVLSKLPIGDVATQYFADRDMFCAGRVPEEDLKRTMMACGGSIQTSVNALSSDVLGRCQVFEETQIGGERYNFFTGCPKAKTCTIILRGGAEQFMEETERSLHDAIMIVRRAIKNDSVVAGGGAIEMELSKYLRDYSRTIPGKQQLLIGAYAKALEIIPRQLCDNAGFDATNILNKLRARHAQGGMWYGVDINTEDIADNFEAFVWEPAMVRINALTAASEAACLIVSVDETIKNPRSTVDASPAAGRGRGRGRLH

What was measured:
Assay in all cases: cross-linking
[1] = molecular target: CCT4, subunit of yeast TRiC/CCT (yTRiC) (Saccharomyces cerevisiae, UniProt P39078 1-528)
Chain of CCT4, subunit of yeast TRiC/CCT (yTRiC) (P39078 whole entry): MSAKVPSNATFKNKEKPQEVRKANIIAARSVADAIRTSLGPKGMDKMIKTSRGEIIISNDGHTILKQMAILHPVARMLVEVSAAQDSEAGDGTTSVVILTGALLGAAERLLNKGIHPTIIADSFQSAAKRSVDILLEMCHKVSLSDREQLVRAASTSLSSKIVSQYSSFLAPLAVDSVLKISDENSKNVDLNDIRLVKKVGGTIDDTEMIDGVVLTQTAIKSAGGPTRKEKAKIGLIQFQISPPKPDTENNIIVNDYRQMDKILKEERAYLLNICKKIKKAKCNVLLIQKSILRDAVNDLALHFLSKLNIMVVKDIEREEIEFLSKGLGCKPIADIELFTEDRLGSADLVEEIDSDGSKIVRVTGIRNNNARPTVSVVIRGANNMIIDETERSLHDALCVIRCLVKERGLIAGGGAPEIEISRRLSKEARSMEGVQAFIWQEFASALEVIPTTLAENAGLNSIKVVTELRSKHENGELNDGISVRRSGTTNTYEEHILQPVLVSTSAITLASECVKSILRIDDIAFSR

[2] = molecular target: CCT1, subunit of bovine TRiC/CCT (bTRiC) (Bos taurus, UniProt Q32L40 1-556)
Chain of CCT1, subunit of bovine TRiC/CCT (bTRiC) (Q32L40 whole entry): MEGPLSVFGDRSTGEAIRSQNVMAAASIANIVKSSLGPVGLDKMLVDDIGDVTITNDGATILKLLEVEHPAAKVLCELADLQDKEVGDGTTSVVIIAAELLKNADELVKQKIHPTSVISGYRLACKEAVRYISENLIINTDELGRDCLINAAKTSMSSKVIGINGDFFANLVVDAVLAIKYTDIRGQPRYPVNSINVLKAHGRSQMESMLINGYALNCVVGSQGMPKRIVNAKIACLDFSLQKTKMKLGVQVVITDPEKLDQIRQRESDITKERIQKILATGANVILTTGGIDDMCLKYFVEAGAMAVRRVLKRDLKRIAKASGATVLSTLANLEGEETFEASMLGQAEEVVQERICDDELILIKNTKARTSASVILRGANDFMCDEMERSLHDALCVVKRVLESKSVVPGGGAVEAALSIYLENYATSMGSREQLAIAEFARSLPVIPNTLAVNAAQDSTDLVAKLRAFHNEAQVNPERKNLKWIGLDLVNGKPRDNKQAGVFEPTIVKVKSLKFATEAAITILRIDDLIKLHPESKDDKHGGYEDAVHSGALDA

[3] = molecular target: B4
[4] = molecular target: T1, CCT8, subunit of bovine TRiC/CCT (bTRiC) (Bos taurus, UniProt Q3ZCI9 1-548)
T1 sequence (looked up): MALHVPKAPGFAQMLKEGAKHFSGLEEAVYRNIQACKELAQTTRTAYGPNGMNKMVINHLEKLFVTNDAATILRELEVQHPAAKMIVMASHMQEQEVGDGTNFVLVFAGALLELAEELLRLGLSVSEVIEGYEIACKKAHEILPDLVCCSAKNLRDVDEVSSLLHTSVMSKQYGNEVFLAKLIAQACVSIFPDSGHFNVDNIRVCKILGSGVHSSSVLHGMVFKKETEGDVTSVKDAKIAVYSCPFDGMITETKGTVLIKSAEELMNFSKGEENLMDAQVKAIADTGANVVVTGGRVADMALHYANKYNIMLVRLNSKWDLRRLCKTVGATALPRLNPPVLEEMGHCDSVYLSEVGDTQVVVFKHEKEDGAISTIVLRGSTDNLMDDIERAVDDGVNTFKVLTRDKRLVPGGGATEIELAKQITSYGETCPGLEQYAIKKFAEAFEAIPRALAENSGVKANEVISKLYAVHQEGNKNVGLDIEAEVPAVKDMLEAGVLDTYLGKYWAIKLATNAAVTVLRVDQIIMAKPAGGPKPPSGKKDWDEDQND

B1
binding result [1]: binds

B2
binding result [2]: binds

B3
binding result [3]: binds

B4
binding result [2]: binds

B5
binding result [4]: binds
